Test results published in patent US20190241671A1 (Merck KGaA, published 2019).
Substitutions are numbered along the chain they refer to. Blank lines part the entries; values can stand above or below the binder they belong to.

How the values were obtained:
[1] = biological target: T1, CD19 antigen on Daudi lymphoma cells (human, UniProt P15391 20-556); assay: FACS competition on Daudi cells; unlabeled antibody 50 ng/ml (0.5x) vs competitor biotin-B4 VH0/VK0 100 ng/ml
T1 construct: whole, on cells; also called Daudi cells
T1 sequence (looked up): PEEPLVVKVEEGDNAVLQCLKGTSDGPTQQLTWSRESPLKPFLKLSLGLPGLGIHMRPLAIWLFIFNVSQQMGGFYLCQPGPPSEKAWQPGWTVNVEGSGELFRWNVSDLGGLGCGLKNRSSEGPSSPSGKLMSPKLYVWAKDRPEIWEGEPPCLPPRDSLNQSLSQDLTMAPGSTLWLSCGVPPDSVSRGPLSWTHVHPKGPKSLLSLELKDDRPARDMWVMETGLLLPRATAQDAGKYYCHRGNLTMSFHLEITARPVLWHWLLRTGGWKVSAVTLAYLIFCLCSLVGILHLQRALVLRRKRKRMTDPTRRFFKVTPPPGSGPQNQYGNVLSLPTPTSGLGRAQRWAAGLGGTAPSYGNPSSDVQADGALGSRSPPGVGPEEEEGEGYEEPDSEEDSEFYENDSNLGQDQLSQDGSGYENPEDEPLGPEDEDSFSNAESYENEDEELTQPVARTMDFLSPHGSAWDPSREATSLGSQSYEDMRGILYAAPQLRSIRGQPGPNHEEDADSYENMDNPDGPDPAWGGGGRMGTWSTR
Description: (§1) Briefly, a titration series was prepared of biotin-labeled B4 VH0/VK0 antibody pre-mixed at a final concentration of 100 ng/ml with one of the unlabeled, experimental B4 VHvx/VKvy antibodies at 800 ng/ml, 400 ng/ml, 200 ng/ml, 100 ng/ml, and 50 ng/ml in a PBS/2% serum buffer. As a control, the biotin-labeled antibody was pre-mixed with unlabeled B4 VH0/VK0 antibody at the same concentrations as above (inhibition control) or with buffer only (positive binding control). The combined antibodies were added to Daudi cells for 30 minutes at 4° C. A 1:200 dilution of FITC-labeled streptavidin was added to the cells and the samples were incubated for a further 30 minutes at 4° C. Bound amount of labeled B4 VH0/VK0 antibody was quantitated by FACS analysis, and the results were expressed as “percent inhibition,” relative to the positive binding control. The tested antibodies were B4 VH0/VK0 (C), B4 VHv1/VKv1 (1), B4 VHv2/VKv1 (2), B4 VHv1/VKv2 (3), B4 VHv2/VKv2 (4), B4 VHv3/VKv3 (5), B4 VHv4/VKv3 (6), B4 VHv3/VKv4 (7), B4 VHv4/VKv4 (8), B4 VHv5/VKv4 (9), and B4 VHv6/VKv4 (10).

[2] = biological target: T1, CD19 antigen on Daudi lymphoma cells; assay: FACS competition on Daudi cells; unlabeled antibody 800 ng/ml (8x) vs competitor biotin-B4 VH0/VK0 100 ng/ml
Description: as §1

[3] = biological target: T1, CD19 antigen on Daudi lymphoma cells; assay: FACS competition on Daudi cells; unlabeled antibody 400 ng/ml (4x) vs competitor biotin-B4 VH0/VK0 100 ng/ml
Description: as §1

[4] = biological target: T1, CD19 antigen on Daudi lymphoma cells; assay: FACS competition on Daudi cells; unlabeled antibody 100 ng/ml (1x) vs competitor biotin-B4 VH0/VK0 100 ng/ml
Description: as §1

[5] = biological target: T1, CD19 antigen on Daudi lymphoma cells; assay: FACS competition on Daudi cells; unlabeled antibody 200 ng/ml (2x) vs competitor biotin-B4 VH0/VK0 100 ng/ml
Description: as §1

[6] = biological target: T1, CD19 antigen on Daudi lymphoma cells; assay: FACS competition on Daudi cells; unlabeled antibody 50 ng/ml (0.5x) vs competitor biotin-B4 VH0/VK0 100 ng/ml; remark: listed apart in the source
Description: as §1

[7] = biological target: T1, CD19 antigen on Daudi lymphoma cells; assay: FACS competition on Daudi cells; unlabeled antibody 100 ng/ml (1x) vs competitor biotin-B4 VH0/VK0 100 ng/ml; remark: listed apart in the source
Description: as §1

[8] = biological target: T1, CD19 antigen on Daudi lymphoma cells; assay: FACS competition on Daudi cells; unlabeled antibody 200 ng/ml (2x) vs competitor biotin-B4 VH0/VK0 100 ng/ml; remark: listed apart in the source
Description: as §1

[9] = biological target: T1, CD19 antigen on Daudi lymphoma cells; assay: FACS competition on Daudi cells; unlabeled antibody 800 ng/ml (8x) vs competitor biotin-B4 VH0/VK0 100 ng/ml; remark: listed apart in the source
Description: as §1

[10] = biological target: T1, CD19 antigen on Daudi lymphoma cells; assay: FACS competition on Daudi cells; unlabeled antibody 400 ng/ml (4x) vs competitor biotin-B4 VH0/VK0 100 ng/ml; remark: listed apart in the source
Description: as §1

% inhibition of labeled B4 binding [1]: 53%
% inhibition of labeled B4 binding [2]: 87%
% inhibition of labeled B4 binding [3]: 80%
% inhibition of labeled B4 binding [4]: 60%
% inhibition of labeled B4 binding [5]: 70%
B1: B4 VHv6/VKv4 antibody (antibody, V domains shown)
VH: QVQLEQPGAEVVKPGASVKVSCKTSGYTFTSNWMHWVKQRPGQGLEWIGEIDPSDSYTNYNQKFDGKAKLTVDKSSSTAYMEVSDLTSEDSATYYCARGSNPYYYAMDYWGQGTSVTVSS
VL: QIVLTQSPATLSASPGEKATMTCSASSGVNYMHWYQQKPGTSPKRWIYDTDKTASGVPARFSGSGSGTSYSLTISSMEAEDAATYYCHQRGSYTFGGGTKLEIK
notes: also called 10

% inhibition of labeled B4 binding [6]: 12%
% inhibition of labeled B4 binding [7]: 20%
% inhibition of labeled B4 binding [8]: 32%
% inhibition of labeled B4 binding [9]: 56%
% inhibition of labeled B4 binding [10]: 44%
B2: B4 VHv1/VKv2 antibody (antibody, V domains shown)
VH: B1 VH with E5Q, K19R, V20L, K23E, G42D, D65K, K69E, T93V
VL: B1 VL with Q1D, A19V, D51S, T53L, A54D

% inhibition of labeled B4 binding [6]: 12%
% inhibition of labeled B4 binding [7]: 16%
% inhibition of labeled B4 binding [8]: 28%
% inhibition of labeled B4 binding [9]: 56%
% inhibition of labeled B4 binding [10]: 44%
B3: B4 VHv1/VKv1 antibody (antibody, V domains shown)
VH: B1 VH with E5Q, K19R, V20L, K23E, G42D, D65K, K69E, T93V
VL: B1 VL with V3A, S7E, T10I, L11M, A19V, D51S, T53L, A54D

% inhibition of labeled B4 binding [6]: 8%
% inhibition of labeled B4 binding [7]: 16%
% inhibition of labeled B4 binding [8]: 28%
% inhibition of labeled B4 binding [9]: 56%
% inhibition of labeled B4 binding [10]: 40%
B4: B4 VHv2/VKv1 antibody (antibody, V domains shown)
VH: B1 VH with E5Q, K19R, V20L, D65K, K69E, T93V
VL: B1 VL with V3A, S7E, T10I, L11M, A19V, D51S, T53L, A54D

% inhibition of labeled B4 binding [6]: 12%
% inhibition of labeled B4 binding [7]: 20%
% inhibition of labeled B4 binding [8]: 36%
% inhibition of labeled B4 binding [9]: 60%
% inhibition of labeled B4 binding [10]: 40%
B5: B4 VHv3/VKv3 antibody (antibody, V domains shown)
VH: B1 VH with V12K, T24A, D65K, S88A, T93V
VL: B1 VL with V29A, D51S, T53L, S75E

% inhibition of labeled B4 binding [6]: 12%
% inhibition of labeled B4 binding [7]: 16%
% inhibition of labeled B4 binding [8]: 32%
% inhibition of labeled B4 binding [9]: 60%
% inhibition of labeled B4 binding [10]: 48%
B6: B4 VHv4/VKv4 antibody (antibody, V domains shown)
VH: B1 VH with R40T, Q43K, S88A
VL: B1 VL

% inhibition of labeled B4 binding [6]: 8%
% inhibition of labeled B4 binding [7]: 16%
% inhibition of labeled B4 binding [8]: 32%
% inhibition of labeled B4 binding [9]: 56%
% inhibition of labeled B4 binding [10]: 44%
B7: B4 VHv2/VKv2 antibody (antibody, V domains shown)
VH: B1 VH with E5Q, K19R, V20L, D65K, K69E, T93V
VL: B1 VL with Q1D, A19V, D51S, T53L, A54D

% inhibition of labeled B4 binding [1]: 50%
% inhibition of labeled B4 binding [6]: 16%
% inhibition of labeled B4 binding [2]: 93%
% inhibition of labeled B4 binding [7]: 28%
% inhibition of labeled B4 binding [3]: 90%
% inhibition of labeled B4 binding [4]: 67%
% inhibition of labeled B4 binding [8]: 44%
% inhibition of labeled B4 binding [9]: 68%
% inhibition of labeled B4 binding [5]: 83%
% inhibition of labeled B4 binding [10]: 56%
B8: B4 VH0/VK0 antibody (antibody, V domains shown)
VH: B1 VH with E5Q, K19R, V20L, D65K, D85S, T93V
VL: B1 VL with T10I, L11M, A19V, D51S, T53L
notes: Expressed from pdHL12 as intact heavy and light chains; also called parental B4 antibody

% inhibition of labeled B4 binding [1]: 47%
% inhibition of labeled B4 binding [2]: 90%
% inhibition of labeled B4 binding [3]: 87%
% inhibition of labeled B4 binding [4]: 57%
% inhibition of labeled B4 binding [5]: 70%
B9: B4 VHv5/VKv4 antibody (antibody, V domains shown)
VH: B1 VH with V12K, T24A, K38R, R40A, Q43K
VL: B1 VL

% inhibition of labeled B4 binding [6]: 12%
% inhibition of labeled B4 binding [7]: 16%
% inhibition of labeled B4 binding [8]: 32%
% inhibition of labeled B4 binding [9]: 56%
% inhibition of labeled B4 binding [10]: 44%
B10: B4 VHv4/VKv3 antibody (antibody, V domains shown)
VH: B1 VH with R40T, Q43K, S88A
VL: B1 VL with V29A, D51S, T53L, S75E

% inhibition of labeled B4 binding [6]: 12%
% inhibition of labeled B4 binding [7]: 20%
% inhibition of labeled B4 binding [8]: 36%
% inhibition of labeled B4 binding [9]: 60%
% inhibition of labeled B4 binding [10]: 52%
B11: B4 VHv3/VKv4 antibody (antibody, V domains shown)
VH: B1 VH with V12K, T24A, D65K, S88A, T93V
VL: B1 VL
